# Like-named read-outs stand apart in the source and are kept apart here.
# T1: rCRR22 (UniProt Q3E6Q1 47-809)
# T1 sequence: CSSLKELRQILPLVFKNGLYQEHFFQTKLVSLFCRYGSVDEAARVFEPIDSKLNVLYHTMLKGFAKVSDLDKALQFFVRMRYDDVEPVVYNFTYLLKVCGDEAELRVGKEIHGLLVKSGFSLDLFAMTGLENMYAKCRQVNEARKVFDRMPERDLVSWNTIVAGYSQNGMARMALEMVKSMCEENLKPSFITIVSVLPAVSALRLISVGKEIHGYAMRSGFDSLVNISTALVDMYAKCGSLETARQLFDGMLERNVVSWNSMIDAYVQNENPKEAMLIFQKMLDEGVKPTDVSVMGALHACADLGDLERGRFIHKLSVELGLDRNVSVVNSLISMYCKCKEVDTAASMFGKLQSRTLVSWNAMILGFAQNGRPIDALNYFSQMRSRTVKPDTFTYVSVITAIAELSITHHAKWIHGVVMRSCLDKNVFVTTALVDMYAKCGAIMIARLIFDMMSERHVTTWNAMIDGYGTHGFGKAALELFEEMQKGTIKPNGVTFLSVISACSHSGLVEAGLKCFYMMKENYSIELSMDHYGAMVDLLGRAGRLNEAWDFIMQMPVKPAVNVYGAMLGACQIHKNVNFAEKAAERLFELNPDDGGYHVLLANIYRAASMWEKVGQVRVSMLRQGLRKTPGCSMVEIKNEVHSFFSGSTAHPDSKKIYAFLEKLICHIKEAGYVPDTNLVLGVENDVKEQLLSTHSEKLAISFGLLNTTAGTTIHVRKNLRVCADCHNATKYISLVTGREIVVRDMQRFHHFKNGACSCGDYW
# B1: ndhG1S2 (ssRNA)
# RNA: UUUUUCUGGGAUC
# B2: ndhB9S2 (ssRNA)
# RNA: CUGCUUCAGCUUC
# B3: rpoB3L (ssRNA)
# RNA: GGUUCAAGUUAUAACCCAGAAAUAAUUCGUGUAUAUAUUUCACAGAAACGU
# B4: rpoB3S2 (ssRNA)
# RNA: AAUUCGUGUAUAUAUUUC
# B5: ndhB7S2 (ssRNA)
# RNA: GCUUUCCCUAGCCCCUUC
# B6: ndhD1 (ssRNA)
# RNA: GACCUGGUGUAUCUUGUCUUUACCACGAAUGAUUUU
# B7: ndhD2 (ssRNA)
# RNA: GCAAUGUACAGCGGUCAAAUAGGAUCAUUUUCUUCU
# B8: ycf1 (ssRNA)
# RNA: UAACUGUCCUAGCUCUACCG
# B9: rpoB3S (ssRNA)
# RNA: AAUAAUUCGUGUAUAUAUUUC
# B10: ndhD5S (ssRNA)
# RNA: UUAUGCAGCUUCAACAUCUCC
# B11: ndhB7S (ssRNA)
# RNA: CAAGCUUUCCCUAGCCCCUUC
# B12: ndhB9S (ssRNA)
# RNA: UAGCUGCUUCAGCUUC
# B13: ndhB9L (ssRNA)
# RNA: GCUUUUCUUUCUGUUACUUCGAAAGUAGCUGCUUCAGCUUCAGCCACUCGA
# B14: ndhB7L (ssRNA)
# RNA: AUCACUGUAGGAAUUGGGUUCAAGCUUUCCCUAGCCCCUUCUCAUCAAUGG
# B15: ndhG1L (ssRNA)
# RNA: CCUGGACCAAUACAUGAUUUUCUUUUAGUUUUUCUGGGAUCCGGUCUUCUA
# B16: ndhG1S (ssRNA)
# RNA: UAGUUUUUCUGGGAUC
# B17: ndhD5L (ssRNA)
# RNA: GUCGGUACAAUCCAAAUAAUUUAUGCAGCUUCAACAUCUCCCGGUCAACGU
# B18: ndhD5S2 (ssRNA)
# RNA: UGCAGCUUCAACAUCUCC
# Assays:
# Assay in all cases: EMSA
# [1] = target: T2, rOTP82 (UniProt Q9LN01 41-741)
# [2] = target: T1, rCRR22
# [3] = target: T2, rOTP82; remark: listed apart in the source
# [4] = target: T1, rCRR22; remark: listed apart in the source
# T2 sequence (Q9LN01 41-741): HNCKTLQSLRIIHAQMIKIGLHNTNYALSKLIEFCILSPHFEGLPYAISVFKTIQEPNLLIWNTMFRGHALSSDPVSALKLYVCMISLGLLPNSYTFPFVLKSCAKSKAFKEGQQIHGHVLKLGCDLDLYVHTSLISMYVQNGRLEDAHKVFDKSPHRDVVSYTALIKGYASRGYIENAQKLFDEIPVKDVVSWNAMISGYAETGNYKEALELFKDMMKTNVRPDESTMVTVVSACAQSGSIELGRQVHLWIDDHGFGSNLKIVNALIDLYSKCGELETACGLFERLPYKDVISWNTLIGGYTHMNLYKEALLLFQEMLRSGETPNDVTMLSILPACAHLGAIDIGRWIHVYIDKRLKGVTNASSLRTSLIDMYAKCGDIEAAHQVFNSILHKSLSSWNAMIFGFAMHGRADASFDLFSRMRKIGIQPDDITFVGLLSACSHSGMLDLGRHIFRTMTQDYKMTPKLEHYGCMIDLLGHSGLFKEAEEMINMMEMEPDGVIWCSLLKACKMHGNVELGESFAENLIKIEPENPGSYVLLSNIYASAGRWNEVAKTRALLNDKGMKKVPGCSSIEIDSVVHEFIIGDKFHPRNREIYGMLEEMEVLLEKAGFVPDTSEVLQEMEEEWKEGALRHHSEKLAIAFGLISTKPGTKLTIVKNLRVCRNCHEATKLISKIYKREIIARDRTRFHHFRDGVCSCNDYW
binder,measurement,setting,value
B1,Kd,[1],167 nM
B2,Kd,[1],119 nM
B3,binding result,[2],binds
B4,Kd,[2],18.9 ± 3.1 nM
B5,Kd,[2],70 nM
B6,binding result,[3],no binding
same,binding result,[4],no binding
B7,binding result,[3],no binding
B8,binding result,[4],no binding
B9,Kd,[2],13.5 ± 2.5 nM
B10,Kd,[2],10.8 nM
B11,Kd,[2],9.2 nM
B12,Kd,[1],9.7 nM
B13,binding result,[1],binds
B14,binding result,[2],binds
B15,binding result,[1],binds
B16,Kd,[1],12.2 nM
B17,binding result,[2],binds
B18,Kd,[2],96.2 nM
